Assay results from the supplement of paper PMC7877785.
± gives the uncertainty stated by the source.

Test: self-splicing fitness, log relative to wild type (ln ratio); higher = more splicing; Tetrahymena group I intron in knt gene, E. coli kanamycin selection, DiMSum; sequences stand for … in CUCUCU…GGAGGGAAAAGUUAUCAGGCAUGCACCUGGUAGCUAGUCUUUAAACCAAUAGAUUGCAUCGGUUUAAAAGGCAAGACCGUCAAAUUGCGGGAAAGGGGUCAACAGCCGUUCAGUACCAAGUCUCAGGGGAAACUUUGAGAUGGCCUUGCAAAGGGUAUGGUAAUAAGCUGACGGACAUGGUCCUAACCACGCAGCCAAGUCCUAAGUCAACAGAUCUUCUGUUGAUAUGGAUGCAGUUCACAGACUAAAUGUCGGUCGGGGAAGAUGUAUUCUUCUCAUAAGAUAUAGUCGGACCUCUCCUUAAUGGGAGCUAGCGGAUGAAGUGAUGCAACACUGGAGCCGCUGGGAACUAAUUUGUAUGCGAAAGUAUAUUGAUUAGUUUUGGAGUACUCGUGGUCG
Procedure, shortened: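 DiMSum derived fitness as the error-weighted combination of fold changes across replicates, kanamycin versus no kanamycin, normalised to wild type. E. coli BL21(DE3) held the library, which randomised all eight P1ex-region intron nucleotides within the knt kanamycin-resistance gene on pET-22b(+). Six replicate transformations grew overnight at 37°C or 30°C on LB agar with or without 25 μg/mL kanamycin, also containing 100 μg/mL carbenicillin, 50 μM IPTG and 0.2% rhamnose, and pooled colonies were amplicon-sequenced on an Illumina HiSeq 2500.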

Sequence	self-splicing fitness (ln) (30 °C)	self-splicing fitness (ln) (37 °C)
AUGAAGCAAUAUUACGAGAU	-2.93 ± 0.21	-1.28 ± 0.21
AUGAAGCAAUAUUACGAGGG	-2.64 ± 0.21	-2.83 ± 0.28
AUGAAGCAAUAUUACGAGGU	-3.32 ± 0.15	-2.07 ± 0.18
AUGAAGCAAUAUUACGAUAG	-4.07 ± 0.39	-2.33 ± 0.32
AUGAAGCAAUAUUACGAUCU	-0.0854 ± 0.072	0.317 ± 0.088
AUGAAGCAAUAUUACGAUUU	0.114 ± 0.062	0.345 ± 0.071
AUGAAGCAAUAUUACGCACA	0.703 ± 0.097	0.63 ± 0.14
AUGAAGCAAUAUUACGCAGU	-1.36 ± 0.11	-0.415 ± 0.11
AUGAAGCAAUAUUACGCCGU	-0.474 ± 0.12	-0.0165 ± 0.14
AUGAAGCAAUAUUACGCGCG	-0.094 ± 0.087	-0.808 ± 0.098
AUGAAGCAAUAUUACGCGGG	-1.39 ± 0.11	-0.785 ± 0.14
AUGAAGCAAUAUUACGGCAG	0.378 ± 0.086	-0.115 ± 0.1
AUGAAGCAAUAUUACGGUAG	-2.93 ± 0.17	-2.03 ± 0.23
AUGAAGCAAUAUUACGGUAU	-0.945 ± 0.066	-0.484 ± 0.086
AUGAAGCAAUAUUACGUAAA	-1.99 ± 0.09	-1.27 ± 0.11
AUGAAGCAAUAUUACGUAGG	-2.79 ± 0.16	-1.25 ± 0.18
AUGAAGCAAUAUUACGUAUC	-4.1 ± 0.24	-1.99 ± 0.18
AUGAAGCAAUAUUACGUCAG	-0.198 ± 0.057	0.134 ± 0.073
AUGAAGCAAUAUUACGUCUG	-0.0483 ± 0.061	0.316 ± 0.079
AUGAAGCAAUAUUACGUGGU	-1.71 ± 0.07	-1.31 ± 0.087
AUGAAGCAAUAUUACGUUUC	-4.39 ± 0.2	-3.03 ± 0.15
AUGCAGCAAUAUUACGAACA	-0.00786 ± 0.13	0.392 ± 0.16
AUGCAGCAAUAUUACGACAA	-0.348 ± 0.075	-0.366 ± 0.093
AUGCAGCAAUAUUACGAGCG	-0.487 ± 0.063	-0.0426 ± 0.084
AUGCAGCAAUAUUACGAGUU	-3.2 ± 0.11	-1.39 ± 0.1

Sequence	self-splicing fitness (ln) (30 °C)	self-splicing fitness (ln) (37 °C)
AUGCAGCAAUAUUACGAUAG	-2.99 ± 0.19	-2.57 ± 0.22
AUGCAGCAAUAUUACGCAAC	-2.42 ± 0.18	-2.58 ± 0.2
AUGCAGCAAUAUUACGCCGA	-1.55 ± 0.14	-0.543 ± 0.17
AUGCAGCAAUAUUACGCGCG	-0.941 ± 0.1	-0.349 ± 0.1
AUGCAGCAAUAUUACGCGGU	-4.01 ± 0.21	-1.85 ± 0.16
AUGCAGCAAUAUUACGCUAC	-3.31 ± 0.21	-2.38 ± 0.23
AUGCAGCAAUAUUACGGACC	-1.52 ± 0.17	-0.744 ± 0.17
AUGCAGCAAUAUUACGGGAA	-2.83 ± 0.16	-1.92 ± 0.14
AUGCAGCAAUAUUACGGGCG	0.108 ± 0.089	0.464 ± 0.11
AUGCAGCAAUAUUACGGGGA	-2.64 ± 0.16	-2.26 ± 0.18
AUGCAGCAAUAUUACGGUGU	-3.52 ± 0.16	-1.63 ± 0.14
AUGCAGCAAUAUUACGUAUA	-2.57 ± 0.27	-1.6 ± 0.16
AUGCAGCAAUAUUACGUCUU	0.0107 ± 0.076	0.303 ± 0.082
AUGCAGCAAUAUUACGUGCA	-2.07 ± 0.1	-0.922 ± 0.1
AUGCAGCAAUAUUACGUGGA	-3.1 ± 0.29	-1.73 ± 0.18
AUGCAGCAAUAUUACGUGUC	-3.68 ± 0.18	-3.18 ± 0.2
AUGCAGCAAUAUUACGUGUU	-4.05 ± 0.16	-2.66 ± 0.17
AUGCAGCAAUAUUACGUUGA	-2.97 ± 0.14	-2.41 ± 0.12
AUGGAGCAAUAUUACGAAGU	–	-1.77 ± 0.36
AUGGAGCAAUAUUACGACAA	-1.86 ± 0.22	-2.46 ± 0.22
AUGGAGCAAUAUUACGACGU	-0.474 ± 0.09	-0.306 ± 0.099
AUGGAGCAAUAUUACGACUA	-1.08 ± 0.14	-1.33 ± 0.16
AUGGAGCAAUAUUACGACUG	-2.28 ± 0.3	–
AUGGAGCAAUAUUACGAGAA	–	-1.43 ± 0.34
AUGGAGCAAUAUUACGAGAG	–	-2.04 ± 0.23

Sequence	self-splicing fitness (ln) (30 °C)	self-splicing fitness (ln) (37 °C)
AUGGAGCAAUAUUACGAGUC	-2.08 ± 0.41	–
AUGGAGCAAUAUUACGAUAU	-1.77 ± 0.12	-1.17 ± 0.15
AUGGAGCAAUAUUACGAUGG	-2.22 ± 0.29	-2.47 ± 0.44
AUGGAGCAAUAUUACGAUUC	-2.21 ± 0.3	–
AUGGAGCAAUAUUACGCGAA	-1.66 ± 0.31	-2.36 ± 0.29
AUGGAGCAAUAUUACGCGAC	-1.94 ± 0.28	-2.79 ± 0.43
AUGGAGCAAUAUUACGCGCC	–	-1.2 ± 0.34
AUGGAGCAAUAUUACGCGUC	-4.02 ± 0.18	-2.79 ± 0.15
AUGGAGCAAUAUUACGCUGA	-3.48 ± 0.24	-3.11 ± 0.35
AUGGAGCAAUAUUACGCUUU	–	-1.37 ± 0.46
AUGGAGCAAUAUUACGGAGU	–	-2.34 ± 0.27
AUGGAGCAAUAUUACGGCAA	-0.0716 ± 0.34	-3.02 ± 0.47
AUGGAGCAAUAUUACGGCGA	–	-1.68 ± 0.29
AUGGAGCAAUAUUACGGUCG	-2.63 ± 0.18	-0.839 ± 0.12
AUGGAGCAAUAUUACGUCAC	-3.23 ± 0.37	–
AUGGAGCAAUAUUACGUCGA	-3.25 ± 0.3	-3.1 ± 0.43
AUGGAGCAAUAUUACGUCGU	-2.38 ± 0.15	-1.45 ± 0.18
AUGGAGCAAUAUUACGUGCA	-2.82 ± 0.21	-1.65 ± 0.16
AUGUAGCAAUAUUACGAAGU	-3.07 ± 0.23	-0.943 ± 0.18
AUGUAGCAAUAUUACGACAA	-0.201 ± 0.091	0.171 ± 0.11
AUGUAGCAAUAUUACGAUCA	-0.747 ± 0.22	-0.492 ± 0.18
AUGUAGCAAUAUUACGCAAG	-1.8 ± 0.14	-0.627 ± 0.14
AUGUAGCAAUAUUACGCCAU	-2.41 ± 0.19	-2.18 ± 0.24
AUGUAGCAAUAUUACGCGAC	-1.38 ± 0.17	-1.76 ± 0.36
AUGUAGCAAUAUUACGCGCC	-0.455 ± 0.077	-0.312 ± 0.096

Sequence	self-splicing fitness (ln) (30 °C)	self-splicing fitness (ln) (37 °C)
AUGUAGCAAUAUUACGCUGC	-2.72 ± 0.41	-2.69 ± 0.48
AUGUAGCAAUAUUACGGAGU	-3.01 ± 0.23	-1.2 ± 0.18
AUGUAGCAAUAUUACGGCAA	0.118 ± 0.11	-0.419 ± 0.12
AUGUAGCAAUAUUACGGCCA	-0.669 ± 0.21	-0.586 ± 0.22
AUGUAGCAAUAUUACGGCCU	0.449 ± 0.097	0.248 ± 0.12
AUGUAGCAAUAUUACGGCGC	-0.704 ± 0.094	-0.408 ± 0.12
AUGUAGCAAUAUUACGGGUG	-3.85 ± 0.29	-2.54 ± 0.18
AUGUAGCAAUAUUACGUAAG	-2.99 ± 0.2	-2.93 ± 0.2
AUGUAGCAAUAUUACGUACC	-0.724 ± 0.19	-1.14 ± 0.18
AUGUAGCAAUAUUACGUAGG	-3.93 ± 0.19	-1.43 ± 0.096
AUGUAGCAAUAUUACGUCUC	–	-2.4 ± 0.3
AUGUAGCAAUAUUACGUGAG	-0.927 ± 0.15	-0.0873 ± 0.21
AUGUAGCAAUAUUACGUUAC	-4.22 ± 0.39	-0.607 ± 0.2
AUGUAGCAAUAUUACGUUGG	-2.21 ± 0.12	-1.8 ± 0.17
AUUAAGCAAUAUUACGACAA	-0.618 ± 0.096	-0.264 ± 0.11
AUUAAGCAAUAUUACGACAG	-1.91 ± 0.16	-1.47 ± 0.19
AUUAAGCAAUAUUACGACUG	-2.34 ± 0.2	-1.64 ± 0.24
AUUAAGCAAUAUUACGAGGU	-2.83 ± 0.24	-2.1 ± 0.31
AUUAAGCAAUAUUACGAUGG	-3.96 ± 0.37	-1.94 ± 0.26
AUUAAGCAAUAUUACGCAAA	-1.78 ± 0.23	-1.32 ± 0.18
AUUAAGCAAUAUUACGCCAA	-0.955 ± 0.21	-1.59 ± 0.25
AUUAAGCAAUAUUACGCCGG	-0.824 ± 0.19	-0.226 ± 0.25
AUUAAGCAAUAUUACGCCUA	-0.154 ± 0.086	0.195 ± 0.11
AUUAAGCAAUAUUACGCGCC	-1.18 ± 0.15	-0.862 ± 0.2
